Measured values from FireProtDB (doi:10.1021/bi0512400).
Where “and” joins values, the source holds several entries; their conditions need not be identical. Equal values may be shown once.

B1: Alpha-lactalbumin, P00712 (parent)
chain: MMSFVSLLLVGILFHATQAEQLTKCEVFQKLKDLKDYGGVSLPEWVCTAFHTSGYDTQAIVQNNDSTEYGLFQINNKIWCKDDQNPHSRNICNISCDKFLDDDLTDDIVCAKKILDKVGINYWLAHKALCSEKLDQWLCEKL

Variants of: B1
Details: Capra hircus, pH 7.5, 25 °C, GdnHCl, CD, Tris 20 mM, Ca2+ 10 mM, structure 1HFY, whole UniProt chain shown

Row | Variant | ddG of mutation (higher = less stable) [kcal/mol] | denaturant m value [kcal/mol/M] | unfolding free energy [kcal/mol] | denaturant m value (transition: 3) | unfolding free energy (transition: 3)
1 | MMSFVSLLLVGILFHATQAEQLTKCEVFQKLKDLKDYGGVSLPEWVCTAFHTSGYDTQAIVQNNDSTEYGLFQINNKIFCKDDQNPHSRNICNISCDKFLDDDLTDDIVCAKKILDKVGINYWLAHKALCSEKLDQWLCEKL [W79F] | 1.27 | 2.65 | 8.97 | 1.51 kcal/mol/M and 1.14 kcal/mol/M | 4.98 kcal/mol and 3.99 kcal/mol
2 | MMSFVSLLLVGILFHATQAEQLTKCEVFQKLKDLKDYGGVSLPEWVCTAFHTSGYDTQAIVQNNDSTEYGLFQINNKIWCKDDQNPHSRNICNISCDKFLDDDLTDDIVCAKKILDKVGINYFLAHKALCSEKLDQWLCEKL [W123F] | 2.27 | 2.8 | 7.97 |  | 
3 | MMSFVSLLLVGILFHATQAEQLTKCEVFQKLKDLKDYGGVSLPEFVCTAFHTSGYDTQAIVQNNDSTEYGLFQINNKIWCKDDQNPHSRNICNISCDKFLDDDLTDDIVCAKKILDKVGINYWLAHKALCSEKLDQWLCEKL [W45F] | 2.4 | 2.81 | 7.84 | 1.65 kcal/mol/M and 1.16 kcal/mol/M | 4.18 kcal/mol and 3.66 kcal/mol
4 | MMSFVSLLLVGILFHATQAEQLTKCEVFQKLKDLKDYGGVSLPEWVCTAFHTSGYDTQAIVQNNDSTEYGLFQINNKIWCKDDQNPHSRNICNISCDKFLDDDLTDDIVCAKKILDKVGINYWLAHKALCSEKLDQFLCEKL [W137F] | -0.16 | 3.06 | 10.4 |  | 
